What was measured:
[1] = molecular target: soluble αvβ3 integrin heterodimer (Chemicon International) (UniProt P06756); assay: competition ELISA: soluble αvβ3 (5 ng/µl) on wells coated with G^919-1207 (the competitor), with increasing fibronectin
[2] = molecular target: α3β1 integrin on human endothelial cells (TrHBMEC) (human) (UniProt P26006); assay: cell-based or functional assay
α3β1 integrin on human endothelial cells (TrHBMEC) (human), sequence (P26006 33-1051, chain 1 of 2): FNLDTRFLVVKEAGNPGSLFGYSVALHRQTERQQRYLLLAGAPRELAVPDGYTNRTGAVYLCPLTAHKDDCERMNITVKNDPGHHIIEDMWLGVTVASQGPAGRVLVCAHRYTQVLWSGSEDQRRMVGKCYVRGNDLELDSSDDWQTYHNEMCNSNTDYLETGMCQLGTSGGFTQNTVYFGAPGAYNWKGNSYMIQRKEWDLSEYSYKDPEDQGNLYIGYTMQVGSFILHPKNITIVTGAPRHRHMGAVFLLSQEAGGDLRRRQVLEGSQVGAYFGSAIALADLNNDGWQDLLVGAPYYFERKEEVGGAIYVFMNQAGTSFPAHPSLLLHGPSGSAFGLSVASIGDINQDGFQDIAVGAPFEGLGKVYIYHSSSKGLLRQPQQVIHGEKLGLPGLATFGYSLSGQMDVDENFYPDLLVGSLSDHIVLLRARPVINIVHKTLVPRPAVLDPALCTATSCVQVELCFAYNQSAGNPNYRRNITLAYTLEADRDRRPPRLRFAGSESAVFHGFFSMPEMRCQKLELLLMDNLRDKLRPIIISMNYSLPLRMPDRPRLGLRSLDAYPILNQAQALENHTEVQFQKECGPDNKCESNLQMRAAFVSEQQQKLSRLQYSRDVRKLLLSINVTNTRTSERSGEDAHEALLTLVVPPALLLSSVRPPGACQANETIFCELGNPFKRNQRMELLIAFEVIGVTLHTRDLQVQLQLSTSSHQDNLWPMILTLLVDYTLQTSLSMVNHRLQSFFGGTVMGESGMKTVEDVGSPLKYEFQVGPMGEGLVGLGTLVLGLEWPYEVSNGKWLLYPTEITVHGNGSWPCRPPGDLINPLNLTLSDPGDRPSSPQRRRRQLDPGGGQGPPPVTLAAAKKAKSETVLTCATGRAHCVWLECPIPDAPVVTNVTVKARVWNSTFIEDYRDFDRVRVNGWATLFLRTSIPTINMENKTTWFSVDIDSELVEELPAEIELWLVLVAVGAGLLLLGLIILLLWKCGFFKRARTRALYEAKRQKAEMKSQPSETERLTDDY
α3β1 integrin on human endothelial cells (TrHBMEC) (human), sequence (P05556 21-798, chain 2 of 2, further chain): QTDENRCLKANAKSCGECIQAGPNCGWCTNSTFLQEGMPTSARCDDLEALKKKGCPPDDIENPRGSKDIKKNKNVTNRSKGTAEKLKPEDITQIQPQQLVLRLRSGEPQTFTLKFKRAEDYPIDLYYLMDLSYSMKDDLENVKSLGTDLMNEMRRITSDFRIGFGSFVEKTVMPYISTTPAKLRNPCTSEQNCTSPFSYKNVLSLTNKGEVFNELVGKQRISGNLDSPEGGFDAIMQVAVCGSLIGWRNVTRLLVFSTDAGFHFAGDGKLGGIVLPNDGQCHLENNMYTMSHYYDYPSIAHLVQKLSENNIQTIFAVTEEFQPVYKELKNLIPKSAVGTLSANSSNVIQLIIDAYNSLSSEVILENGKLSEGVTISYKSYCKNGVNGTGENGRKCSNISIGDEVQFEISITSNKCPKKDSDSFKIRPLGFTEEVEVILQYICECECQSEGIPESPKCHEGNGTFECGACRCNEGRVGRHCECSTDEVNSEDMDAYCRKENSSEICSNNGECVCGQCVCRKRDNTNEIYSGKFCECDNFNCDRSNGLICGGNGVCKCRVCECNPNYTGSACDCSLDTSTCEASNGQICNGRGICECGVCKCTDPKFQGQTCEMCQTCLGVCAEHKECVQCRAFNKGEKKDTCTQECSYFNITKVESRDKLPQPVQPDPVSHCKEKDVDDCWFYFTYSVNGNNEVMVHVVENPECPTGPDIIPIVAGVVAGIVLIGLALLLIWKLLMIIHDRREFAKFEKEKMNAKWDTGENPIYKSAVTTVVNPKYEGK

soluble αvβ3 integrin heterodimer (Chemicon International), sequence (P06756 31-992, chain 1 of 2): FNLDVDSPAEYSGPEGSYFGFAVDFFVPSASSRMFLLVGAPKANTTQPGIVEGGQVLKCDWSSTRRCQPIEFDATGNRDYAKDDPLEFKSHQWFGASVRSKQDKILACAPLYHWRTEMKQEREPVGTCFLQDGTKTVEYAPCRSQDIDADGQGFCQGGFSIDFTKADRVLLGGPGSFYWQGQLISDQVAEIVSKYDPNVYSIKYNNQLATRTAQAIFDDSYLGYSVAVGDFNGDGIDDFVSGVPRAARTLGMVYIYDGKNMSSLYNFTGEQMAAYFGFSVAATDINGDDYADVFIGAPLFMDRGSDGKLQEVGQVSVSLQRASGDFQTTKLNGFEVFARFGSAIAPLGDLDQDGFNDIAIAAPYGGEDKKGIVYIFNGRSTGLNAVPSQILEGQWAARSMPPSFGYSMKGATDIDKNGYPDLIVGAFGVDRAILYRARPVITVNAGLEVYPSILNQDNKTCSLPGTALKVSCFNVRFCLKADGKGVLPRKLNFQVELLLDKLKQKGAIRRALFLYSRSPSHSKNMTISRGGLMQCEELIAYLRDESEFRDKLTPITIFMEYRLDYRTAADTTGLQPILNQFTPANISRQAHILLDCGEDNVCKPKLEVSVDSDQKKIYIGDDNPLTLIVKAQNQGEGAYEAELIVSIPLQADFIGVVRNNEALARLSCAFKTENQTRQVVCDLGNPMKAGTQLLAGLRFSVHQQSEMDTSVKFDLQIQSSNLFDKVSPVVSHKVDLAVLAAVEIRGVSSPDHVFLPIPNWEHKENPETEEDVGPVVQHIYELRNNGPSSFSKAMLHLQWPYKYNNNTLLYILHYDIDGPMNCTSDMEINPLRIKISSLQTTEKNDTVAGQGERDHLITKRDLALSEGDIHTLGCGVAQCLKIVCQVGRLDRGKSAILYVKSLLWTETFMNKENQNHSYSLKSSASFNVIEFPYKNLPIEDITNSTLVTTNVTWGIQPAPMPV
soluble αvβ3 integrin heterodimer (Chemicon International), sequence (P05106 27-718, chain 2 of 2, further chain): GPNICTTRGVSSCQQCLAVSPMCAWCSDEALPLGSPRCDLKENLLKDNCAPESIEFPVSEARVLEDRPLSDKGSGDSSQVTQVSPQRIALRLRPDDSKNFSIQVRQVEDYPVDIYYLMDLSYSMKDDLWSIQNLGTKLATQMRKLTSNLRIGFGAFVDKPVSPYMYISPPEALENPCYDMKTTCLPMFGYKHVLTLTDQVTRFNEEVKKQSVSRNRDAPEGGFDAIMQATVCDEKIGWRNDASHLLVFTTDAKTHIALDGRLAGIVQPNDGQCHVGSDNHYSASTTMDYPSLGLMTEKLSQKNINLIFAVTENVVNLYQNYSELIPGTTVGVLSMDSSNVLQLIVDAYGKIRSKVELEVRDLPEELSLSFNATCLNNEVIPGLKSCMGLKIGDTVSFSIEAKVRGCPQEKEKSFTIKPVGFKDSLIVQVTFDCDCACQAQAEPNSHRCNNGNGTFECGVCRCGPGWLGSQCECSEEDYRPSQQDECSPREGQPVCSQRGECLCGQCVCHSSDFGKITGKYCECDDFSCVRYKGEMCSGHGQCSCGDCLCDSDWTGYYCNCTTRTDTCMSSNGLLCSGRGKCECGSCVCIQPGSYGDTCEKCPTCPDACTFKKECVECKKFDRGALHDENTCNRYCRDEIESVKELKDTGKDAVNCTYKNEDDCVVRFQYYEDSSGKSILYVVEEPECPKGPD

IC50 [1]	inhibition of endothelial cell adhesion to laminin 5 by a combination of antibodies against the α3 and α6 integrin subunits [2]	inhibition of endothelial cell adhesion to laminin 5 by antibody 6S6 against β1 integrin [2]	inhibition of endothelial cell adhesion to laminin 5 by antibody LM609 against αvβ3 integrin [2]	Substance
84 nM				human fibronectin (BD Biosciences), P02751 32-2296 (ligand)
	40%	> 80%	60%	laminin 5 derived from conditioned medium of cultured epithelial cells (ligand)

Reference: patent US20030103975A1
